Results published in doi:10.1101/2021.07.02.450934.

Target: wild-type Pseudomonas testosteroni ketosteroid isomerase (KSI) (Pseudomonas testosteroni)
Assay: SEC

With “wild-type Pseudomonas testosteroni ketosteroid isomerase (KSI) (enzyme)” as the substance, how does the stoichiometry N read?
The stoichiometry N was 2.
